The results in this text go back to PMC9352680, “A comprehensive thermodynamic model for RNA binding by the Saccharomyces cerevisiae Pumilio protein PUF4”.

The chains are these.
T1: PUF4 RNA-binding domain (Saccharomyces cerevisiae, UniProt P25339 537-888)
T1 sequence: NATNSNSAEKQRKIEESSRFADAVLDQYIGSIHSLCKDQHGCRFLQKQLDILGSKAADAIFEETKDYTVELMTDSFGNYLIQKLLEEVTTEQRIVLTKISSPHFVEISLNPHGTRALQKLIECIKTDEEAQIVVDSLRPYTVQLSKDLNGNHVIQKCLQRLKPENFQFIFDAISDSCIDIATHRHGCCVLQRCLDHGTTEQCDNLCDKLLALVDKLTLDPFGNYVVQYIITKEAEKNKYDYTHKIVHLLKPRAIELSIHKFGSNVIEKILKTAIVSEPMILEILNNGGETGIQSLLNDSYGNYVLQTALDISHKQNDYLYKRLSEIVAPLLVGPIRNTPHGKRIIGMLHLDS

The target in this series is T1, PUF4 RNA-binding domain. The series is described as follows: Mg; RNA-MaP; 20 mM Na-HEPES pH 7.4, 30 mM KOAc, 0.75 mM MgCl2, 0.1% Tween-20, 5% glycerol, 0.1 mg/mL BSA, 2 mM DTT; 25 C; 0.0125-409.6 nM protein. The following applies: tags: N-His6-TEV cleaved; C-SNAP kept, Cy3B-labelled; label: tethered on chip by stalled RNA polymerase.
As to UCUCUUUGUGUAUAUUAUGUCUCUU (ssRNA) [Id_ii_S1_P4E.2_K4.1_C4.2_[C-2T]_[T-1G]_H4.1_A4.1_F4.1_T4.2_[G10T]_[T11G]], the Kd is 968 pM. Next, UCUCUUUCUGUAUAUUAUUUCUCUU (ssRNA) [Id_ii_S1_P4E.2_K4.1_C4.2_[C-2T]_[T-1C]_H4.1_A4.1_F4.1_T4.2_[G10T]]: 502 pM. UCUCUUUAUGUAUAUUAAAUCUCUU (ssRNA) [Id_ii_S1_P4E.2_K4.1_C4.2_[C-2T]_[T-1A]_H4.1_A4.1_F4.1_T4.2_[G10A]_[T11A]] registered a Kd of 1940 pM.

UCUCUUUGUAUACUAUCUCUU (ssRNA) [Ic_S1_P4E.1_K4.1_C4.1_H4.1_A4.1_[T7C]_F4.1_T4.1] gave a Kd of 741 pM. The molecule UCUCUUUUUGUAUAUUAUGUCUCUU (ssRNA) [Id_ii_S1_P4E.2_K4.1_C4.2_[C-2T]_H4.1_A4.1_F4.1_T4.2_[G10T]_[T11G]] yielded a Kd of 981 pM.

As to UCUCUUUGUGUAUAUUAAAUCUCUU (ssRNA) [Id_ii_S1_P4E.2_K4.1_C4.2_[C-2T]_[T-1G]_H4.1_A4.1_F4.1_T4.2_[G10A]_[T11A]], the Kd stood at 1460 pM. Next, UCUCUUUAUGUAUAUUAUUUCUCUU (ssRNA) [Id_ii_S1_P4E.2_K4.1_C4.2_[C-2T]_[T-1A]_H4.1_A4.1_F4.1_T4.2_[G10T]]: 1070 pM; UCUCUUUCUGUAUAUUAUCUCUCUU (ssRNA) [Id_ii_S1_P4E.2_K4.1_C4.2_[C-2T]_[T-1C]_H4.1_A4.1_F4.1_T4.2_[G10T]_[T11C]]: 770 pM.

In turn, UCUCUUUAUGUAUAUUAACUCUCUU (ssRNA) [Id_ii_S1_P4E.2_K4.1_C4.2_[C-2T]_[T-1A]_H4.1_A4.1_F4.1_T4.2_[G10A]_[T11C]] came in with a Kd of 1350 pM. Next, UCUCUUUAUGUAUAUUAUGUCUCUU (ssRNA) [Id_ii_S1_P4E.2_K4.1_C4.2_[C-2T]_[T-1A]_H4.1_A4.1_F4.1_T4.2_[G10T]_[T11G]]: 980 pM. The molecule UCUCUUUAUAUACUAUCUCUU (ssRNA) [Ib_S1_P4E.1_K4.1_C4.1_H4.1_[G2A]_A4.1_[T7C]_F4.1_T4.1] showed a Kd of 17800 pM. UCUCUUGUUGUAUAUUAUCUCUCUU (ssRNA) [Id_ii_S1_P4E.2_K4.1_C4.2_[C-2G]_H4.1_A4.1_F4.1_T4.2_[G10T]_[T11C]] came in with a Kd of 891 pM.

UCUCUUUCUGUAUAUUAGUUCUCUU (ssRNA) [Id_ii_S1_P4E.2_K4.1_C4.2_[C-2T]_[T-1C]_H4.1_A4.1_F4.1_T4.2] gave a Kd of 308 pM.

Take UCUCUUUCUGUAUAUUAACUCUCUU (ssRNA) [Id_ii_S1_P4E.2_K4.1_C4.2_[C-2T]_[T-1C]_H4.1_A4.1_F4.1_T4.2_[G10A]_[T11C]]: the affinity, expressed as Kd, was 887 pM. As for UCUCUUUGUGUAUAUUAGUUCUCUU (ssRNA) [Id_ii_S1_P4E.2_K4.1_C4.2_[C-2T]_[T-1G]_H4.1_A4.1_F4.1_T4.2], the Kd is 304 pM.

The molecule UCUCUUUGUGUAUAUUAUCUCUCUU (ssRNA) [Id_ii_S1_P4E.2_K4.1_C4.2_[C-2T]_[T-1G]_H4.1_A4.1_F4.1_T4.2_[G10T]_[T11C]] had a Kd of 1060 pM. This Kd is about 3.5-fold higher than that of the molecule before. Next, UCUCUUUAUGUAUAUUAUCUCUCUU (ssRNA) [Id_ii_S1_P4E.2_K4.1_C4.2_[C-2T]_[T-1A]_H4.1_A4.1_F4.1_T4.2_[G10T]_[T11C]]: 896 pM.

In the case of UCUCUUUAUGUAUAUUAAUUCUCUU (ssRNA) [Id_ii_S1_P4E.2_K4.1_C4.2_[C-2T]_[T-1A]_H4.1_A4.1_F4.1_T4.2_[G10A]], the affinity, expressed as Kd, was 1170 pM.

Molecule UCUCUUUUUGUAUAUUAUAUCUCUU (ssRNA) [Id_ii_S1_P4E.2_K4.1_C4.2_[C-2T]_H4.1_A4.1_F4.1_T4.2_[G10T]_[T11A]] had a Kd of 1240 pM. This Kd and that of the molecule before are within 1.5-fold of each other. UCUCUUUCUGUAUAUUACUUCUCUU (ssRNA) [Id_ii_S1_P4E.2_K4.1_C4.2_[C-2T]_[T-1C]_H4.1_A4.1_F4.1_T4.2_[G10C]]: binding was characterised by a dissociation constant (Kd) of 672 pM. As for UCUCUUUAUGUAUAUUACCUCUCUU (ssRNA) [Id_ii_S1_P4E.2_K4.1_C4.2_[C-2T]_[T-1A]_H4.1_A4.1_F4.1_T4.2_[G10C]_[T11C]], the affinity, expressed as Kd, was 854 pM.

UCUCUUGUUGUAUAUUAGUUCUCUU (ssRNA) [Id_ii_S1_P4E.2_K4.1_C4.2_[C-2G]_H4.1_A4.1_F4.1_T4.2] gave a Kd of 355 pM. Next, UCUCUUUUUGUAUAUUAUCUCUCUU (ssRNA) [Id_ii_S1_P4E.2_K4.1_C4.2_[C-2T]_H4.1_A4.1_F4.1_T4.2_[G10T]_[T11C]]: 856 pM; UCUCUUUUUGUAUAUUACUUCUCUU (ssRNA) [Id_ii_S1_P4E.2_K4.1_C4.2_[C-2T]_H4.1_A4.1_F4.1_T4.2_[G10C]]: 909 pM; UCUCUUUGUGUAUAUUAUUUCUCUU (ssRNA) [Id_ii_S1_P4E.2_K4.1_C4.2_[C-2T]_[T-1G]_H4.1_A4.1_F4.1_T4.2_[G10T]]: 848 pM.

UCUCUUGUUGUAUAUUAUUUCUCUU (ssRNA) [Id_ii_S1_P4E.2_K4.1_C4.2_[C-2G]_H4.1_A4.1_F4.1_T4.2_[G10T]] showed a Kd of 762 pM. The Kd values of the last two molecules are within 1.5-fold of each other. The value for UCUCUUUAUAUAAUAUCUCUU (ssRNA) [Ib_S1_P4E.1_K4.1_C4.1_H4.1_[G2A]_A4.1_[T7A]_F4.1_T4.1] was 61400 pM; that for UCUCUUGUUGUAUAUUAAUUCUCUU (ssRNA) [Id_ii_S1_P4E.2_K4.1_C4.2_[C-2G]_H4.1_A4.1_F4.1_T4.2_[G10A]] was 1250 pM; that for UCUCUUUGUGUAUAUUAAUUCUCUU (ssRNA) [Id_ii_S1_P4E.2_K4.1_C4.2_[C-2T]_[T-1G]_H4.1_A4.1_F4.1_T4.2_[G10A]] was 1630 pM. The molecule UCUCUUUCUGUAUAUUAAAUCUCUU (ssRNA) [Id_ii_S1_P4E.2_K4.1_C4.2_[C-2T]_[T-1C]_H4.1_A4.1_F4.1_T4.2_[G10A]_[T11A]] displayed a Kd of 1060 pM. The value for UCUCUUUCUGUAUAUUAAGUCUCUU (ssRNA) [Id_ii_S1_P4E.2_K4.1_C4.2_[C-2T]_[T-1C]_H4.1_A4.1_F4.1_T4.2_[G10A]_[T11G]] was 2740 pM; that for UCUCUUGUUGUAUAUUAAAUCUCUU (ssRNA) [Id_ii_S1_P4E.2_K4.1_C4.2_[C-2G]_H4.1_A4.1_F4.1_T4.2_[G10A]_[T11A]] was 1780 pM; that for UCUCUUUGCACAUUAUCUCUU (ssRNA) [Ib_S1_P4E.1_K4.1_C4.1_H4.1_[T3C]_A4.1_[T5C]_F4.1_T4.1] was 36200 pM. The value for UCUCUUGUUGUAUAUUAUGUCUCUU (ssRNA) [Id_ii_S1_P4E.2_K4.1_C4.2_[C-2G]_H4.1_A4.1_F4.1_T4.2_[G10T]_[T11G]] was 1070 pM; that for UCUCUUUCUGUAUAUUACCUCUCUU (ssRNA) [Id_ii_S1_P4E.2_K4.1_C4.2_[C-2T]_[T-1C]_H4.1_A4.1_F4.1_T4.2_[G10C]_[T11C]] was 848 pM; that for UCUCUUUUUGUAUAUUAAGUCUCUU (ssRNA) [Id_ii_S1_P4E.2_K4.1_C4.2_[C-2T]_H4.1_A4.1_F4.1_T4.2_[G10A]_[T11G]] was 3680 pM. For UCUCUUUUUGUAUAUUAACUCUCUU (ssRNA) [Id_ii_S1_P4E.2_K4.1_C4.2_[C-2T]_H4.1_A4.1_F4.1_T4.2_[G10A]_[T11C]], binding was put at a Kd of 1090 pM. Consider UCUCUUUGCAAAUUAUCUCUU (ssRNA) [Ib_S1_P4E.1_K4.1_C4.1_H4.1_[T3C]_A4.1_[T5A]_F4.1_T4.1], for which the Kd was found to be 926000 pM. This Kd lies about 850-fold higher than the previous one. As for UCUCUUUCUGUAUAUUAUGUCUCUU (ssRNA) [Id_ii_S1_P4E.2_K4.1_C4.2_[C-2T]_[T-1C]_H4.1_A4.1_F4.1_T4.2_[G10T]_[T11G]], the Kd worked out at 962 pM. Molecule UCUCUUUCUGUAUAUUAUAUCUCUU (ssRNA) [Id_ii_S1_P4E.2_K4.1_C4.2_[C-2T]_[T-1C]_H4.1_A4.1_F4.1_T4.2_[G10T]_[T11A]] registered a Kd of 738 pM. UCUCUUUAUGUAUAUUAGUUCUCUU (ssRNA) [Id_ii_S1_P4E.2_K4.1_C4.2_[C-2T]_[T-1A]_H4.1_A4.1_F4.1_T4.2] had a Kd of 379 pM. Next, UCUCUUUUUGUAUAUUACCUCUCUU (ssRNA) [Id_ii_S1_P4E.2_K4.1_C4.2_[C-2T]_H4.1_A4.1_F4.1_T4.2_[G10C]_[T11C]]: 1090 pM; UCUCUUUAUGUAUAUUACUUCUCUU (ssRNA) [Id_ii_S1_P4E.2_K4.1_C4.2_[C-2T]_[T-1A]_H4.1_A4.1_F4.1_T4.2_[G10C]]: 1030 pM; UCUCUUUUUGUAUAUUAUUUCUCUU (ssRNA) [Id_ii_S1_P4E.2_K4.1_C4.2_[C-2T]_H4.1_A4.1_F4.1_T4.2_[G10T]]: 680 pM.

With UCUCUUUAUGUAUAUUAGCUCUCUU (ssRNA) [Id_ii_S1_P4E.2_K4.1_C4.2_[C-2T]_[T-1A]_H4.1_A4.1_F4.1_T4.2_[T11C]], the Kd is 465 pM.

By Kd is commonly meant the constant that tells how readily two partners part at equilibrium. Low readings indicate higher affinity, high ones lower affinity.
